Laboratory results as given in patent US20230270892A1, “CHELATOR COMPOSITIONS FOR RADIOMETALS AND METHODS OF USING SAME” (TRIUMF INC., priority 2020, published 2023).

What was measured:
[1] = in vivo; design: species or system mice; conditions: mouse, iv, total radioactivity
Description: (§1) At the day of biodistribution mice were injected in the tail vein with ~20 kBq of ^225Accrown-αMSH (range: 10.8-31.6 kBq). […] Blood was collected by cardiac puncture and a full biodistribution performed. Organs were cleaned from blood, weighed and the activity determined using a calibrated gamma counter (Packard Cobra II Auto-gamma counter, Perkin Elmer, Waltham, MA, USA) using three energy windows: 60-120 keV (window A), 180-260 keV (window B), and 400-480 keV (window C). Counting was performed after 6 hours post-sacrifice to ensure equilibrium of the ^225Ac decay chain. Counts were decay corrected from the time of sacrifice and total organ weights were used for the calculation of injected dose per gram of tissue (% ID/g). No differences were noted between the data calculated by three different windows; therefore, the biodistributions are reported using the data acquired using window A. The biological distribution of ^225Ac-crown-TATE was examined by the inventors following similar protocols as described above for Example 5.1.

[2] = in vivo; design: species or system mice; conditions: mouse, iv, total radioactivity; remark: listed apart in the source
Description: as §1, with “A similar study to Example 5.1 was conducted using ^213Bi instead” for “The biological distribution”, “^225Ac.” for “^225Ac-crown-TATE was examined by the inventors following similar protocols as described above for Example 5.1.”

[3] = test system: mice bearing B16F10 tumors; test: in vivo; conditions: mouse
Description: as §1, with “A similar study to Example 5.1 was conducted using ^213Bi instead” for “The biological distribution”, “^225Ac.” for “^225Ac-crown-TATE was examined by the inventors following similar protocols as described above for Example 5.1.”

SMILES: C[C@@H](O)[C@H](NC(=O)[C@@H]1CSSC[C@H](NC(=O)[C@@H](Cc2ccccc2)NC(=O)CN2CCOCCN(CC(=O)O)CCN(CC(=O)O)CCOCCN(CC(=O)O)CC2)C(=O)N[C@@H](Cc2ccc(O)cc2)C(=O)N[C@H](Cc2c[nH]c3ccccc23)C(=O)N[C@@H](CCCCN)C(=O)N[C@@H]([C@@H](C)O)C(=O)N1)C(=O)O [^225Ac-crown-TATE, metal not drawn]
- tissue uptake at 1 h ([1]; Biodistribution: Andrenals): 1.34 %ID/g
- tissue uptake at 4 h ([1]; Biodistribution: Andrenals): 1.37 %ID/g
- tissue uptake at 24 h ([1]; Biodistribution: Andrenals): 1.77 %ID/g
- tissue uptake at 72 h ([1]; Biodistribution: Andrenals): 1.37 %ID/g
- tissue uptake at 1 h ([1]; Biodistribution: Bladder): 7.09 %ID/g
- tissue uptake at 4 h ([1]; Biodistribution: Bladder): 1.04 %ID/g
- tissue uptake at 24 h ([1]; Biodistribution: Bladder): 0.33 %ID/g
- tissue uptake at 72 h ([1]; Biodistribution: Bladder): 0.37 %ID/g
- tissue uptake at 1 h ([1]; Biodistribution: Blood): 0.54 %ID/g
- tissue uptake at 4 h ([1]; Biodistribution: Blood): 0.09 %ID/g
- tissue uptake at 24 h ([1]; Biodistribution: Blood): 0.03 %ID/g
- tissue uptake at 72 h ([1]; Biodistribution: Blood): 0.02 %ID/g
- tissue uptake at 1 h ([1]; Biodistribution: Bone): 0.35 %ID/g
- tissue uptake at 4 h ([1]; Biodistribution: Bone): 0.78 %ID/g
- tissue uptake at 24 h ([1]; Biodistribution: Bone): 0.38 %ID/g
- tissue uptake at 72 h ([1]; Biodistribution: Bone): 0.78 %ID/g
- tissue uptake at 1 h ([1]; Biodistribution: Brain): 0.03 %ID/g
- tissue uptake at 4 h ([1]; Biodistribution: Brain): 0.01 %ID/g
- tissue uptake at 24 h ([1]; Biodistribution: Brain): 0.01 %ID/g
- tissue uptake at 72 h ([1]; Biodistribution: Brain): 0.01 %ID/g
- excreta dose per gram or mL at 1 h ([1]; Biodistribution: Feces): 0.22 %ID/g
- excreta dose per gram or mL at 4 h ([1]; Biodistribution: Feces): 0.27 %ID/g
- excreta dose per gram or mL at 24 h ([1]; Biodistribution: Feces): 0.53 %ID/g
- excreta dose per gram or mL at 72 h ([1]; Biodistribution: Feces): 0.26 %ID/g
- tissue uptake at 1 h ([1]; Biodistribution: Gallbladder): 0.68 %ID/g
- tissue uptake at 4 h ([1]; Biodistribution: Gallbladder): 0.52 %ID/g
- tissue uptake at 24 h ([1]; Biodistribution: Gallbladder): 0.99 %ID/g
- tissue uptake at 72 h ([1]; Biodistribution: Gallbladder): 1.25 %ID/g
- tissue uptake at 1 h ([1]; Biodistribution: Heart): 0.32 %ID/g
- tissue uptake at 4 h ([1]; Biodistribution: Heart): 0.15 %ID/g
- tissue uptake at 24 h ([1]; Biodistribution: Heart): 0.18 %ID/g
- tissue uptake at 72 h ([1]; Biodistribution: Heart): 0.19 %ID/g
- tissue uptake at 1 h ([1]; Biodistribution: Kidneys): 20 %ID/g
- tissue uptake at 4 h ([1]; Biodistribution: Kidneys): 20.7 %ID/g
- tissue uptake at 24 h ([1]; Biodistribution: Kidneys): 11.5 %ID/g
- tissue uptake at 72 h ([1]; Biodistribution: Kidneys): 7.09 %ID/g
- tissue uptake at 1 h ([1]; Biodistribution: Lg Intestine): 1.55 %ID/g
- tissue uptake at 4 h ([1]; Biodistribution: Lg Intestine): 1.58 %ID/g
- tissue uptake at 24 h ([1]; Biodistribution: Lg Intestine): 1.31 %ID/g
- tissue uptake at 72 h ([1]; Biodistribution: Lg Intestine): 1.02 %ID/g
- tissue uptake at 1 h ([1]; Biodistribution: Liver): 1.38 %ID/g
- tissue uptake at 4 h ([1]; Biodistribution: Liver): 1 %ID/g
- tissue uptake at 24 h ([1]; Biodistribution: Liver): 1.77 %ID/g
- tissue uptake at 72 h ([1]; Biodistribution: Liver): 2.43 %ID/g
- tissue uptake at 1 h ([1]; Biodistribution: Lungs): 3.4 %ID/g
- tissue uptake at 4 h ([1]; Biodistribution: Lungs): 3.37 %ID/g
- tissue uptake at 24 h ([1]; Biodistribution: Lungs): 2.31 %ID/g
- tissue uptake at 72 h ([1]; Biodistribution: Lungs): 2 %ID/g
- tissue uptake at 1 h ([1]; Biodistribution: Muscle): 0.1 %ID/g
- tissue uptake at 4 h ([1]; Biodistribution: Muscle): 0.02 %ID/g
- tissue uptake at 24 h ([1]; Biodistribution: Muscle): 0.02 %ID/g
- tissue uptake at 72 h ([1]; Biodistribution: Muscle): 0.04 %ID/g
- tissue uptake at 1 h ([1]; Biodistribution: Pancreas): 4.39 %ID/g
- tissue uptake at 4 h ([1]; Biodistribution: Pancreas): 3.24 %ID/g
- tissue uptake at 24 h ([1]; Biodistribution: Pancreas): 1.22 %ID/g
- tissue uptake at 72 h ([1]; Biodistribution: Pancreas): 1.07 %ID/g
- tissue uptake at 1 h ([1]; Biodistribution: Sm Intestine): 0.88 %ID/g
- tissue uptake at 4 h ([1]; Biodistribution: Sm Intestine): 0.74 %ID/g
- tissue uptake at 24 h ([1]; Biodistribution: Sm Intestine): 0.51 %ID/g
- tissue uptake at 72 h ([1]; Biodistribution: Sm Intestine): 0.49 %ID/g
- tissue uptake at 1 h ([1]; Biodistribution: Spleen): 0.48 %ID/g
- tissue uptake at 4 h ([1]; Biodistribution: Spleen): 0.36 %ID/g
- tissue uptake at 24 h ([1]; Biodistribution: Spleen): 0.23 %ID/g
- tissue uptake at 72 h ([1]; Biodistribution: Spleen): 0.35 %ID/g
- tissue uptake at 1 h ([1]; Biodistribution: Stomach): 5.04 %ID/g
- tissue uptake at 4 h ([1]; Biodistribution: Stomach): 3.7 %ID/g
- tissue uptake at 24 h ([1]; Biodistribution: Stomach): 2.75 %ID/g
- tissue uptake at 72 h ([1]; Biodistribution: Stomach): 2.25 %ID/g
- tissue uptake at 1 h ([1]; Biodistribution: Tail): 1.56 %ID/g
- tissue uptake at 4 h ([1]; Biodistribution: Tail): 0.42 %ID/g
- tissue uptake at 24 h ([1]; Biodistribution: Tail): 0.35 %ID/g
- tissue uptake at 72 h ([1]; Biodistribution: Tail): 0.34 %ID/g
- tissue uptake at 1 h ([1]; Biodistribution: Tumour): 5.86 %ID/g
- tissue uptake at 4 h ([1]; Biodistribution: Tumour): 5.15 %ID/g
- tissue uptake at 24 h ([1]; Biodistribution: Tumour): 5.7 %ID/g
- tissue uptake at 72 h ([1]; Biodistribution: Tumour): 4.97 %ID/g
- excreta dose per gram or mL at 1 h ([1]; Biodistribution: Urine): 108 %ID/g
- excreta dose per gram or mL at 4 h ([1]; Biodistribution: Urine): 13.2 %ID/g
- excreta dose per gram or mL at 24 h ([1]; Biodistribution: Urine): 0.87 %ID/g
- excreta dose per gram or mL at 72 h ([1]; Biodistribution: Urine): 0.2 %ID/g

SMILES: CCCC[C@H](NC(=O)CN1CCC(NC(=O)CN2CCOCCN(CC(=O)O)CCN(CC(=O)O)CCOCCN(CC(=O)O)CC2)CC1)C(=O)N[C@H]1CC(=O)NCCCC[C@@H](C(N)=O)NC(=O)[C@H](Cc2c[nH]c3ccccc23)NC(=O)[C@H](CCCNC(=N)N)NC(=O)[C@@H](Cc2ccccc2)NC(=O)[C@H](Cc2c[nH]cn2)NC1=O [^213Bi-crown-αMSH, metal not drawn]
- tissue uptake at 1 h ([2]; Biodistribution: Bladder): 5.48 %ID/g
- tissue uptake at 1 h ([2]; Biodistribution: Blood): 0.5 %ID/g
- tissue uptake at 1 h ([2]; Biodistribution: Bone): 0.41 %ID/g
- excreta dose per gram or mL at 1 h ([2]; Biodistribution: Feces): 0.23 %ID/g
- tissue uptake at 1 h ([2]; Biodistribution: Heart): 0.09 %ID/g
- tissue uptake at 1 h ([2]; Biodistribution: Kidneys): 6.02 %ID/g
- tissue uptake at 1 h ([2]; Biodistribution: Lg Intestine): 0.56 %ID/g
- tissue uptake at 1 h ([2]; Biodistribution: Liver): 1.09 %ID/g
- tissue uptake at 1 h ([2]; Biodistribution: Lungs): 0.45 %ID/g
- tissue uptake at 1 h ([2]; Biodistribution: Muscle): 0.08 %ID/g
- tissue uptake at 1 h ([2]; Biodistribution: Pancreas): 0.15 %ID/g
- tissue uptake at 1 h ([2]; Biodistribution: Sm Intestine): 0.34 %ID/g
- tissue uptake at 1 h ([2]; Biodistribution: Spleen): 0.36 %ID/g
- tissue uptake at 1 h ([2]; Biodistribution: Stomach): 0.67 %ID/g
- tissue uptake at 1 h ([2]; Biodistribution: Tail): 2.56 %ID/g
- tissue uptake at 1 h ([2]; Biodistribution: Thyroids): 0.74 %ID/g
- tissue uptake at 1 h ([2]; Biodistribution: Tumour): 5.9 %ID/g
- excreta dose per gram or mL at 1 h ([2]; Biodistribution: Urine): 93.2 %ID/g
- T/Blood (ratio tumor versus blood) [3]: 12.15
- T/Bone (ratio tumor versus bone) [3]: 23.41
- T/Kidney (ratio tumor versus kidney) [3]: 0.99
- T/Liver (ratio tumor versus liver) [3]: 5.44
- T/Muscle (ratio tumor versus muscle) [3]: 84.48
